According to patent US20240209382A1 (PURDUE RESEARCH FOUNDATION, published 2024):

Key:
[1] = target: the molecule itself; experiment: TEM of capsid self-assembly, E. coli, transcript with TMV OAS (only disks without OAS)
[2] = target: the molecule itself; experiment: TEM of capsid self-assembly

Row | Protein | binding result [1] | binding result [2]
1 | wild-type Barley stripe mosaic virus coat protein (BSMV-CP) (other, Capsid subunit expressed in E. coli; many copies assemble into disks or rod-shaped VLPs; Rods of the wild type were obtained from the transcript carrying the TMV origin of assembly (RNA); also called BSMV capsid protein; wildtype BSMV VLPs) MPNVSLTAKGGGHYIEDQWDTQVVEAGVFDDWWVHVEAWNKFLDNLRGINFSVASSRSQVAEYLAALDRDLPADVDRRFAGARGQIGSPNYLPAPKFFRLDKRTIAELTRLSRLTDQPHNNRDIELNRAKRATTNPSPPAQAPSENLTLRDVQPLKDSALHYQYVLIDLQSARLPVYTRKTFERELALEWIIPDAEEA | binds | 
2 | BSMV-CP having point mutations at both residues E62Q and D101N (other, Capsid subunit expressed in E. coli; self-assembles into rod-shaped VLPs; also called E62Q/D101N; BSMV-CP-E62Q/D101N) MPNVSLTAKGGGHYIEDQWDTQVVEAGVFDDWWVHVEAWNKFLDNLRGINFSVASSRSQVAQYLAALDRDLPADVDRRFAGARGQIGSPNYLPAPKFFRLNKRTIAELTRLSRLTDQPHNNRDIELNRAKRATTNPSPPAQAPSENLTLRDVQPLKDSALHYQYVLIDLQSARLPVYTRKTFERELALEWIIPDAEEA |  | binds
3 | BSMV-CP having a point mutation at residue E62Q (other, Capsid subunit expressed in E. coli; self-assembles into rod-shaped VLPs; also called BSMV-CP-E62Q) MPNVSLTAKGGGHYIEDQWDTQVVEAGVFDDWWVHVEAWNKFLDNLRGINFSVASSRSQVAQYLAALDRDLPADVDRRFAGARGQIGSPNYLPAPKFFRLDKRTIAELTRLSRLTDQPHNNRDIELNRAKRATTNPSPPAQAPSENLTLRDVQPLKDSALHYQYVLIDLQSARLPVYTRKTFERELALEWIIPDAEEA |  | binds
4 | BSMV-CP having a point mutation at residue D101N (other, Capsid subunit expressed in E. coli; self-assembles into rod-shaped VLPs; also called BSMV-CP-D101N) MPNVSLTAKGGGHYIEDQWDTQVVEAGVFDDWWVHVEAWNKFLDNLRGINFSVASSRSQVAEYLAALDRDLPADVDRRFAGARGQIGSPNYLPAPKFFRLNKRTIAELTRLSRLTDQPHNNRDIELNRAKRATTNPSPPAQAPSENLTLRDVQPLKDSALHYQYVLIDLQSARLPVYTRKTFERELALEWIIPDAEEA |  | binds
5 | BSMV-CP having a point mutation at residue D101R (other, Capsid subunit expressed in E. coli; self-assembles into rod-shaped VLPs; also called BSMV-D101R; BSMV-D101R VLPs) MPNVSLTAKGGGHYIEDQWDTQVVEAGVFDDWWVHVEAWNKFLDNLRGINFSVASSRSQVAEYLAALDRDLPADVDRRFAGARGQIGSPNYLPAPKFFRLRKRTIAELTRLSRLTDQPHNNRDIELNRAKRATTNPSPPAQAPSENLTLRDVQPLKDSALHYQYVLIDLQSARLPVYTRKTFERELALEWIIPDAEEA |  | binds
